Data published in US20060105398A1, “Methods of identifying compounds that modulate igg mediated mast cell activation” (Rigel Pharmaceuticals, Inc, priority 2002, published 2006).

System: FcγRI activation of cultured human mast cells (CHMC)
Test: Priming of mast cells, tryptase activity in supernatant after Fcγ activation with IgG and anti-IgG
Format: cell-based
Settings: IL-4 absent or present in priming solution; IgE primed mast cells; human IgG3 and rabbit anti-human IgG (FIG. 1A, 1B)
Method: Priming of mast cells is carried out by seeding the cells on Day 0 at 3.5×10^5 cells/mL in culture media plus SCF (200 ng/mL), IL-6 (200 ng/mL), IL-4 ([…]), IgE (200 ng/mL), and IgG3 (200 ng/mL).
Activation or stimulation of cells is done on Day 3 by centrifuging the cells down and resupending them at 1.5×10^3 cells/mL in modified tyrodes (MT: 137 mM NaCl, 2.7 mM KCI, 1.8 mM CaCl2, 5.6 mM glucose, 20 mM Hepes (pH 7.4), 0.1% Bovine Serum Albumin (Sigma A4503)), with or without rabbit anti-human IgG (200 ng/mL final conc.), for 30 minutes at 37° C. (see Demo, S. D., Cytometry. 36(4):340-348 (1999)).
Degranulation is measured by centrifuging down the sample, and harvesting the supernatant and measuring tryptase activity. The tryptase assays are performed under standard conditions (25 uL supernatant added to 100 uL of 10 uM tryptase substrate [20 mM stock solution of Z-Ala-Lys-Arg-AMC2TFA (Enzyme systems Products, Catalog No. AMC-246) diluted 1:2000 in tryptase assay buffer [[…] (pH 7.5), 10% w/v Glycerol, […], 0.01% NaN3] for 30 min at 37° C. The reactions are read in plate reader (Wallac, Victor 2, 1420 Multilabel Counter).

Substance: IL-4: cytokine added to the priming solution (20 ng/mL)
- effect on activation (tryptase activity in the supernatant): did not appear to substantially affect activation
